In paper PMC8115288:

Tests used:
[1] = target: GST-SAP18 (UniProt O00422); experiment: pull-down; GST-INI1, GST-SAP18, GST-LEDGF or GST-Gemin2 as bait, His6-IN(WT) or His6-IN(W235E) as prey; bound protein quantified as fraction bound after normalising to the loading control
[2] = target: GST-LEDGF (UniProt O75475); experiment: GST-pull down, quantitation of bound protein; details: parent: est. 1.0; read off a plot
[3] = target: GST-Gemin2 (UniProt O14893); experiment: GST-pull down, quantitation of bound protein; details: parent: est. 1.0; read off a plot
Chain of GST-Gemin2 (O14893 whole entry): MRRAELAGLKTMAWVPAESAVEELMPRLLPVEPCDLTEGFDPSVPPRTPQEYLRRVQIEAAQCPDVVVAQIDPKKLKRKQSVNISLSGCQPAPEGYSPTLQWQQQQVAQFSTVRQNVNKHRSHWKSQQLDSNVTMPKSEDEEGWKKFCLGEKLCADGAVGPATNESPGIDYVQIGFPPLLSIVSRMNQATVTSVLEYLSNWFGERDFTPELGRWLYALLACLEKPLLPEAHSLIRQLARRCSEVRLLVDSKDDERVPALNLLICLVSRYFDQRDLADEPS

Chain of GST-SAP18 (O00422 whole entry): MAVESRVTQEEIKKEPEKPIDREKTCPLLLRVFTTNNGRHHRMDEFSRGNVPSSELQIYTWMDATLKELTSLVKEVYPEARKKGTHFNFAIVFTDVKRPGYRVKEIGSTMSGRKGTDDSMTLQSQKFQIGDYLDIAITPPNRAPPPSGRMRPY
Chain of GST-LEDGF (O75475 whole entry): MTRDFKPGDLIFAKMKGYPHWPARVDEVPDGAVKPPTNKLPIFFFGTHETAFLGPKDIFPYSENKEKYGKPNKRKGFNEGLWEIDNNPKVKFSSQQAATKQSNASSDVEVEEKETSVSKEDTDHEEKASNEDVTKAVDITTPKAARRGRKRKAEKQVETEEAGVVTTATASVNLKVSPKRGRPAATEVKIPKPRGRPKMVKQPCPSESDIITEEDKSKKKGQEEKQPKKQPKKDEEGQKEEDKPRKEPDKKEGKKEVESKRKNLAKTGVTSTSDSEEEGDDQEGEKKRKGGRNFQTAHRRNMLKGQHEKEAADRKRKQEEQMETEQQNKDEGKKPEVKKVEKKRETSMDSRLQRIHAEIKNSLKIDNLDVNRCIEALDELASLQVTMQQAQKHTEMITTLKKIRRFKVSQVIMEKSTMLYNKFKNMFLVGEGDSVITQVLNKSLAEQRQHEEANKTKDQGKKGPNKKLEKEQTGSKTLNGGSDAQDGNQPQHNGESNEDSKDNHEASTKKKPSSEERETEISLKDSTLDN

Row | Substance | % binding [1] | ratio to parent [2] | ratio to parent [3]
1 | His6-IN(W235E) (enzyme) | 20% | – | –
2 | His6-IN(WT) W235E | – | 0.82 | 0.8
